Patent WO2001085789A2 (dated 2001)

Key:
Ryk-Fc fusion protein [1] = target: T1, Ryk-Fc fusion protein (human); assay: SPR, BIACORE 2000, 25 C; scFv 1B4 amine coupled to CM5 chip, Ryk-Fc 30 to 242 nM injected; KD = koff/kon
T1 chain: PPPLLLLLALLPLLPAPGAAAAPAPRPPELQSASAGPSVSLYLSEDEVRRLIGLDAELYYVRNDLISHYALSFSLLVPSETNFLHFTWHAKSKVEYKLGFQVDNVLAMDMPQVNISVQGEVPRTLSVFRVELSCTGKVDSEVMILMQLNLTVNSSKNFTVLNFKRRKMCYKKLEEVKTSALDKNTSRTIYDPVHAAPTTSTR

Ryk-Fc fusion protein [2] = target: T1, Ryk-Fc fusion protein; assay: SPR, BIACORE 2000, 25 C; scFv 1B4 amine coupled to CM5 chip, Ryk-Fc 30 to 242 nM injected; global fit A + B = AB

Kd (Ryk-Fc fusion protein [1]): 13.3 nM | koff (Ryk-Fc fusion protein [2]): 0.00067 s⁻¹ | kon (Ryk-Fc fusion protein [2]): 50000 M⁻¹ s⁻¹
B1: anti-Ryk scFv 1B4 antibody (scFv, V domains shown)
VH: EVQLVQSGAEVKKPGSSVKVSCKASGGTFSSYAISWVRQAPGQGLEWMGGIIPIFGTANYAQKFQGRVTITADESTSTAYMELSSLRSEDTAVYYCARSYYDWFDYWGQGTLVTVSS
VL: IVLTQPPSVSGAPGQRVTISCSGSSSNIGSNYVSWYQQLPGTAPKLLIYDNNQRPSGVPDRFSGSKSGTSASLAITGLQSEDEADYYCQSWDSIAQIVFGGGTKLTVL
